# Results: US20220396635A1 (UNIVERSIT T STUTTGART, published 2022)
# B1: scDb/Fab-Fc (1-2)+1, trivalent bispecific anti-CEAxanti-CD3 (bispecific antibody, human IgG1, kappa)
# chain: QVKLQQSGAELVRSGTSVKLSCTASGFNIKDSYMHWLRQGPEQGLEWIGWIDPENGDTEYAPKFQGKATFTTDTSSNTAYLQLSSLTSEDTAVYYCNEGTPTGPYYFDYWGQGTTVTVSSGGGGSDIQMTQSPSSLSASVGDRVTITCRASQDIRNYLNWYQQKPGKAPKLLIYYTSRLHSGVPSRFSGSGSGTDFTFTISSLQPEDIATYYCQQGNTLPWTFGQGTKLEIKRGGGGSGGGGSGGGGSQVQLVQSGAEVKKPGSSVKVSCKASGGTFSGYTMNWVRQAPGQGLEWMGLINPYKGVSTYNGKFKDRVTITADKSTSTAYMELSSLRSEDTAVYYCARSGYYGDSDWYFDVWGQGTLVTVSSGGGGSDIELTQSPAIMSASPGEKVTITCSASSSVSYMHWFQQKPGTSPKLWIYSTSNLASGVPARFSGSGSGTSYSLTISRMEAEDAATYYCQQRSSYPLTFGAGTKLELKRAAADKTHTCPPCPAPPVAGPSVFLFPPKPKDTLMISRTPEVTCVVVDVSHEDPEVKFNWYVDGVEVHNAKTKPREEQYNSTYRVVSVLTVLHQDWLNGKEYKCKVSNKGLPSSIEKTISKAKGQPREPQVCTLPPSRDELTKNQVSLSCAVKGFYPSDIAVEWESNGQPENNYKTTPPVLDSDGSFFLVSKLTVDKSRWQQGNVFSCSVMHEALHNHYTQKSLSLSPGK
# heavy: QVKLQQSGAELVRSGTSVKLSCTASGFNIKDSYMHWLRQGPEQGLEWIGWIDPENGDTEYAPKFQGKATFTTDTSSNTAYLQLSSLTSEDTAVYYCNEGTPTGPYYFDYWGQGTTVTVSSASTKGPSVFPLAPSSKSTSGGTAALGCLVKDYFPEPVTVSWNSGALTSGVHTFPAVLQSSGLYSLSSVVTVPSSSLGTQTYICNVNHKPSNTKVDKKVEPKSCDKTHTCPPCPAPPVAGPSVFLFPPKPKDTLMISRTPEVTCVVVDVSHEDPEVKFNWYVDGVEVHNAKTKPREEQYNSTYRVVSVLTVLHQDWLNGKEYKCKVSNKGLPSSIEKTISKAKGQPREPQVYTLPPCRDELTKNQVSLWCLVKGFYPSDIAVEWESNGQPENNYKTTPPVLDSDGSFFLYSKLTVDKSRWQQGNVFSCSVMHEALHNHYTQKSLSLSPGK
# light: DIELTQSPAIMSASPGEKVTITCSASSSVSYMHWFQQKPGTSPKLWIYSTSNLASGVPARFSGSGSGTSYSLTISRMEAEDAATYYCQQRSSYPLTFGAGTKLELKRRTVAAPSVFIFPPSDEQLKSGTASVVCLLNNFYPREAKVQWKVDNALQSGNSQESVTEQDSKDSTYSLSSTLTLSKADYEKHKVYACEVTHQGLSSPVTKSFNRGEC
# notes: also called scDbCEAxhuU3-Fc(hole)Δab + VHCEA-CH1-Fc(knob)Δab + VLCEA-CLκ
# B2: scDb/Fab-Fc (2-1)+1, trivalent bispecific anti-CEAxanti-CD3 (bispecific antibody, human IgG1, kappa)
# chain: QVQLVQSGAEVKKPGSSVKVSCKASGGTFSGYTMNWVRQAPGQGLEWMGLINPYKGVSTYNGKFKDRVTITADKSTSTAYMELSSLRSEDTAVYYCARSGYYGDSDWYFDVWGQGTLVTVSSGGGGSDIELTQSPAIMSASPGEKVTITCSASSSVSYMHWFQQKPGTSPKLWIYSTSNLASGVPARFSGSGSGTSYSLTISRMEAEDAATYYCQQRSSYPLTFGAGTKLELKRGGGGSGGGGSGGGGSQVKLQQSGAELVRSGTSVKLSCTASGFNIKDSYMHWLRQGPEQGLEWIGWIDPENGDTEYAPKFQGKATFTTDTSSNTAYLQLSSLTSEDTAVYYCNEGTPTGPYYFDYWGQGTTVTVSSGGGGSDIQMTQSPSSLSASVGDRVTITCRASQDIRNYLNWYQQKPGKAPKLLIYYTSRLHSGVPSRFSGSGSGTDFTFTISSLQPEDIATYYCQQGNTLPWTFGQGTKLEIKRAAADKTHTCPPCPAPPVAGPSVFLFPPKPKDTLMISRTPEVTCVVVDVSHEDPEVKFNWYVDGVEVHNAKTKPREEQYNSTYRVVSVLTVLHQDWLNGKEYKCKVSNKGLPSSIEKTISKAKGQPREPQVCTLPPSRDELTKNQVSLSCAVKGFYPSDIAVEWESNGQPENNYKTTPPVLDSDGSFFLVSKLTVDKSRWQQGNVFSCSVMHEALHNHYTQKSLSLSPGK
# heavy: B1 heavy
# light: B1 light
# notes: also called scDbhuU3xCEA-Fc(hole)Δab + VHCEA-CH1-Fc(knob)Δab + VLCEA-CLκ
# B3: scDb/scFv-Fc (2-1)+1, trivalent bispecific anti-CEAxanti-CD3 (bispecific antibody)
# chain 1: B2 chain
# chain 2: QVKLQQSGAELVRSGTSVKLSCTASGFNIKDSYMHWLRQGPEQGLEWIGWIDPENGDTEYAPKFQGKATFTTDTSSNTAYLQLSSLTSEDTAVYYCNEGTPTGPYYFDYWGQGTTVTVSSGGGGSGGGGSGGGGSDIELTQSPAIMSASPGEKVTITCSASSSVSYMHWFQQKPGTSPKLWIYSTSNLASGVPARFSGSGSGTSYSLTISRMEAEDAATYYCQQRSSYPLTFGAGTKLELKRAAADKTHTCPPCPAPPVAGPSVFLFPPKPKDTLMISRTPEVTCVVVDVSHEDPEVKFNWYVDGVEVHNAKTKPREEQYNSTYRVVSVLTVLHQDWLNGKEYKCKVSNKGLPSSIEKTISKAKGQPREPQVYTLPPCRDELTKNQVSLWCLVKGFYPSDIAVEWESNGQPENNYKTTPPVLDSDGSFFLYSKLTVDKSRWQQGNVFSCSVMHEALHNHYTQKSLSLSPGK
# notes: also called scDbhuU3xCEA-Fc(hole)Δab + scFvCEA-Fc(knob)Δab
# Target: T1, CEA (UniProt P06731 35-685)
# T1 sequence (looked up): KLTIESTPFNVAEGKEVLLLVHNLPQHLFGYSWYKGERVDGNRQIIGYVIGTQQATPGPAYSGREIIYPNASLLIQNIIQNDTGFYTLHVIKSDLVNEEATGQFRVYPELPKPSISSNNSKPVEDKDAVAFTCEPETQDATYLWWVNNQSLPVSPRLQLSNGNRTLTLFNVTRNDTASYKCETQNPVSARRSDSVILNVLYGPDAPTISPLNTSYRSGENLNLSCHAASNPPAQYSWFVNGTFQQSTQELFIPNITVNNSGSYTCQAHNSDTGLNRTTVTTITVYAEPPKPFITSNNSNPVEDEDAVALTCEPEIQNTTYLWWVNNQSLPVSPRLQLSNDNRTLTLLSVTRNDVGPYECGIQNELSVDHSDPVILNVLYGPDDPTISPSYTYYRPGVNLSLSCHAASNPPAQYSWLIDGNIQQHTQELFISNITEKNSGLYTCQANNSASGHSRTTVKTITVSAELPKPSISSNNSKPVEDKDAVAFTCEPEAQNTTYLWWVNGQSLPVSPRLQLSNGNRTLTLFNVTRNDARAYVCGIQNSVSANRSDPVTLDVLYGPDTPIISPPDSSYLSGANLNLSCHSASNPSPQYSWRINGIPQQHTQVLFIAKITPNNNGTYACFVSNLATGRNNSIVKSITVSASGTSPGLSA
# Assay: cell-based or functional assay
row,Binder,"EC50 of PBMC cytotoxicity on LIM1215 cells, E:T 10:1 [nM]"
1,B1,0.4
2,B2,1.2
3,B3,0.3

# Target: T1, CEA
# Assay: cell-based or functional assay
# Remark: another data set of the same source
row,Binder,"EC50 of IL-2 release, PBMCs co-cultured with LIM1215 cells [nM]"
1,B1,0.5
2,B2,3.5
3,B3,1.4

# Target: T2, CD3 (UniProt P07766 23-207)
# T2 construct: whole, on cells; on cells it stands in the TCR/CD3 complex; also called CD3 on Jurkat cells
# Assay: flow cytometry, serial dilution on Jurkat cells (CD3-expressing), PE anti-human Fc detection
# Experimental: (§1) Binding of trivalent, bispecific fusion proteins to CEA-expressing (LIM1215) and CD3-expressing (Jurkat) cell lines was analyzed by flow cytometry. 2×10⁵ cells/well were incubated with a serial dilution of trivalent, bispecific antibodies for 1 h at 4° C. followed by detection using a PE-conjugated anti-human Fc antibody (Jackson ImmunoResearch Laboratories Inc). […] Regarding the CEA-expressing cell line LIM1215, the trivalent, bispecific antibodies bound with EC₅₀ values in the nanomolar range (FIG. 16A) (Table 9).
row,Binder,EC50 [nM]
1,B1,5.7
2,B2,6.1
3,B3,7.9

# Target: T1, CEA
# Assay: flow cytometry, serial dilution on LIM1215 cells (CEA-expressing), PE anti-human Fc detection
# Experimental: as §1
row,Binder,EC50 [nM]
1,B1,2.5
2,B2,2.1
3,B3,1.7
